Measurements reported in patent US8975044B2, “Polynucleotides encoding for frizzled-binding agents and uses thereof” (OncoMed Pharmaceuticals, Inc., priority 2008, dated 2015).

Experiments:
FZD2 = target: T1, FZD2 (Homo sapiens, UniProt Q14332); assay: FACS binding to FZD-transfected HEK293 cells; conditions: for binding to cell-surface FZD2 by flow cytometry (in words): transfected HEK293 cells
T1 construct: plasmid DNA expressing full-length FZD1, 2, 5, 7 or 8; expressed in transfected cells; host or cells: HEK293
Procedure: (§1) To measure antibody binding to FZD by flow cytometry HEK293 cells were co-transfected with FZD expression vectors and the transfection marker GFP. Twenty-four to forty-eight hours post-transfection, cells were collected in suspension and incubated on ice with anti-FZD antibodies (10 μg/ml unless otherwise indicated) or control IgG to detect background antibody binding. The cells were washed and primary antibodies detected with Fc domain-specific secondary antibodies conjugated to a fluorescent chromophore (e.g. phycoerythrin conjugated anti-human IgG). Labeled cells were then analyzed by flow cytometry to identify anti-FZD antibodies that specifically recognize cell surface expression of FZD protein. Monoclonal antibodies 18R5 and 18R8 recognized FZD on transfected cells. As shown in FIG. 1 and FIG. 2, both 18R8 and 18R5 bind to multiple FZD including FZD1, FZD2, FZD5, FZD7, and FZD8. To examine the relative ability of 18R8 and 18R5 to bind to each FZD protein, titration analysis was conducted wherein the amount of antibody in the binding reaction was varied (FIG. 2).
(§2) HEK293 cells were co-transfected with a plasmid DNA expressing full-length FZD1, 2, 5, 7 or 8 along with another plasmid expressing the reporter gene GFP used as a transfection marker. Fugene 6 (Roche) was used as transfection reagent according to the manufacturer directions. Transfected cells were incubated twenty-four to forty-eight hours at 37° C. and 5% CO2. The anti-FZD mAbs were then diluted in a final volume of 50 μl starting with a concentration of 20 μg/ml and serially diluted 4-fold for a total of 8 dilutions. Each FZD/GFP 293 transiently tranfectant pool was collected in suspension and 100,000 transfected cells were incubated on ice 30-60 minutes with the diluted anti-FZD mAb to be tested. The cells were washed and bound anti-Fzd antibodies were detected with a secondary anti-human antibody conjugated to a fluorescent chromophore. Labeled cells were then detected and counted by FACS. The FACS data generated were expressed in Mean Fluorescence Intensity (MFI) units. GraphPad Prism software was used to graph and analyze the data. MFIs were plotted as a function of Ab concentration to establish dose-response curves. A non-linear regression was applied to the numbers to fit the curve and calculate EC50s.

FZD8 [1] = target: T2, FZD8 (Homo sapiens, UniProt Q9H461); assay: FACS binding to FZD-transfected HEK293 cells; conditions: for EC50: FACS MFI dose-response, full-length FZD in HEK293, 20 μg/ml 4-fold dilutions; for binding to cell-surface FZD8 by flow cytometry (in words): transfected HEK293 cells
T2 construct: plasmid DNA expressing full-length FZD1, 2, 5, 7 or 8; expressed in transfected cells; host or cells: HEK293
Procedure: as §1, §2

FZD7 = target: T3, FZD7 (Homo sapiens, UniProt O75084); assay: FACS binding to FZD-transfected HEK293 cells; conditions: transfected HEK293 cells
T3 construct: plasmid DNA expressing full-length FZD1, 2, 5, 7 or 8; expressed in transfected cells; host or cells: HEK293
Procedure: as §1, §2

FZD1 = target: T4, FZD1 (Homo sapiens, UniProt Q9UP38); assay: FACS binding to FZD-transfected HEK293 cells; conditions: transfected HEK293 cells
T4 construct: plasmid DNA expressing full-length FZD1, 2, 5, 7 or 8; expressed in transfected cells; host or cells: HEK293
Procedure: as §1, §2

FZD5 = target: T5, FZD5 (Homo sapiens, UniProt Q13467); assay: FACS binding to FZD-transfected HEK293 cells; conditions: for EC50: FACS MFI dose-response, full-length FZD in HEK293, 20 μg/ml 4-fold dilutions; for binding to cell-surface FZD5 by flow cytometry (in words): transfected HEK293 cells
T5 construct: plasmid DNA expressing full-length FZD1, 2, 5, 7 or 8; expressed in transfected cells; host or cells: HEK293
Procedure: as §1, §2

C28 tumor cells = assay: C28 colon tumor growth study; format: in vivo, Nod-Scid mice; conditions: 15 mg/kg intraperitoneally twice per week
Procedure: C28 tumor cells were injected sub-cutaneously in Nod-Scid mice. Tumors were allowed to grow until they had reached an average volume of 126 mm^3. Tumor bearing animals were groups were randomized into four groups (n=10 mice per group) and treated with either Control Ab (black squares), 18R8 (gray triangles), 44R24 (black open circles), or 18R5 (gray circles) (FIG. 58). Antibodies were dosed intraperitoneally at 15 mg/kg, twice per week. Tumor volumes are indicated.

FZD8 [2] = target: T6, FZD8 (Homo sapiens, UniProt Q9H461, F127V/G126N); assay: Epitope mapping by FACS on FZD8 Fri domain variants on HEK293 cells; format: binding; conditions: amino acids 126-127 mutated from FG to NV
T6 construct: N-terminus of the Fri domain of FZD8 in turn fused to the transmembrane domain and intracellular domain of CD4 protein; expressed in transfected cells; host or cells: HEK293
T6 sequence (Q9H461 28-158 G126N/F127V): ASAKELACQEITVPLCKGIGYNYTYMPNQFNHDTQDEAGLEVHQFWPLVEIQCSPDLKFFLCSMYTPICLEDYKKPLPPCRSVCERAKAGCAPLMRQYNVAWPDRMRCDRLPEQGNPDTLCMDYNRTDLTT
Procedure: To identify the FZD epitope recognized by the 18R8 IgG antibody, epitope mapping was performed. Flow cytometry analysis of cell surface expressed FZD was utilized to measure antibody binding. Mammalian expression plasmid vectors comprising a CMV promoter upstream of polynucleotides that encode an N-terminal signal sequence FLAG epitope tag fused to the N-terminus of the Fri domain of FZD8 in turn fused to the transmembrane domain and intracellular domain of CD4 protein were generated by standard recombinant technology. This expression construct allows expression of the FZD8 Fri domain on the cell surface, as well as expression of a FLAG epitope tag to monitor expression. Site-direct mutagenesis was then used to modify selected amino acids within the extracellular domain of FZD. HEK293 cells were co-transfected with expression vectors encoding the FZD and the transfection marker GFP. Forty-eight hours post-transfection, cells were collected in suspension and incubated on ice with anti-FZD antibody or control IgG to detect background antibody binding. The cells were washed and primary antibodies detected with anti-antibody secondary antibodies conjugated to a fluorescent chromophore. Labeled cells were then analyzed by flow cytometry to measure the binding of anti-FZD antibody to cell surface FZD.
Epitope mapping for the anti-FZD antibody 44R24 was performed in a manner similar to that described above in Example 5 for the antibodies 18R8 and 18R5. The ability of 44R24 to bind to a similar epitope as 18R8 was assessed by flow cytometry using a series of amino acid variants of FZD8 previously shown to disrupt binding of 18R8 (see Example 5 and FIGS. 6 and 7).

Cytokeratin 7 = Cytokeratin 7 immunohistochemistry on treated C28 tumors; format: in vivo, Nod-Scid mice; conditions: tumors harvested after treatment, 15 mg/kg twice per week
Procedure: Following treatment of the animals in the experiment shown in FIG. 58, tumors were harvested, fixed in formalin, embedded in paraffin, and cut in 5 micron sections. Tumor sections were analyzed for Cytokeratin 7 expression, a marker of colon cell differentiation, by immunohistochemistry (Vectastain kit, Vector Labs). Cytokeratin 7 expression was seen to be elevated after treatment with 44R24 or 18R5 (FIG. 59).

T5 sequence (Q13467 27-585): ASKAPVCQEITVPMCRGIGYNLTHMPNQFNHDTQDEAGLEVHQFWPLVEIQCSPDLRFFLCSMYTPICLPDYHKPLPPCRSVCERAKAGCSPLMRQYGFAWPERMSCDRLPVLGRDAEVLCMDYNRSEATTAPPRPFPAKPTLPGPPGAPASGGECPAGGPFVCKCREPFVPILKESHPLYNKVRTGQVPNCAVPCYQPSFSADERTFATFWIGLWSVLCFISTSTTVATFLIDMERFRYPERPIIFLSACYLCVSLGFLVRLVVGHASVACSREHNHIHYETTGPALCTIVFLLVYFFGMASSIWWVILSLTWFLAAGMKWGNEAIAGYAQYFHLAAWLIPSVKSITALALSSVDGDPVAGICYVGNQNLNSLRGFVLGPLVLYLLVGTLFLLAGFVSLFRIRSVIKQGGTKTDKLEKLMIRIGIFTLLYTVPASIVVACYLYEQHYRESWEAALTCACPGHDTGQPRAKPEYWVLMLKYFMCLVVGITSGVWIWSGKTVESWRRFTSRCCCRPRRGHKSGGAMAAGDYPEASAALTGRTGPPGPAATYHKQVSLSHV
T4 sequence (Q9UP38 70-647): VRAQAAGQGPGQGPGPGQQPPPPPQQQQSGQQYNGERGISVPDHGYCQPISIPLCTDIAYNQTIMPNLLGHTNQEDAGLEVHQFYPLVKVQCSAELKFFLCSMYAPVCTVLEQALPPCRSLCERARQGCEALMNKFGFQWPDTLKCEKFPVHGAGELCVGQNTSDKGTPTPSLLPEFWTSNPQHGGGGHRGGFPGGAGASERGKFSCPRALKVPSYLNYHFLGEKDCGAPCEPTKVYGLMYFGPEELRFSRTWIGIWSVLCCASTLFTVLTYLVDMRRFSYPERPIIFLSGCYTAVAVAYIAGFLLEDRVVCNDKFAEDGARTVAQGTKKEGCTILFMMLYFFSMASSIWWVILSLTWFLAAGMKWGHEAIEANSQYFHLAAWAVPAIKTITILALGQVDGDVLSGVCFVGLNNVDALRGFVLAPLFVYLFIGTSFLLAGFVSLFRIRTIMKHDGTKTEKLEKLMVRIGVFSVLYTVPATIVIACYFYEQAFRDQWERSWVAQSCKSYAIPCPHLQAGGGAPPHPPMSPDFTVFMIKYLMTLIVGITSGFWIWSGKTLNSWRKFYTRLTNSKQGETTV
T1 sequence (Q14332 24-565): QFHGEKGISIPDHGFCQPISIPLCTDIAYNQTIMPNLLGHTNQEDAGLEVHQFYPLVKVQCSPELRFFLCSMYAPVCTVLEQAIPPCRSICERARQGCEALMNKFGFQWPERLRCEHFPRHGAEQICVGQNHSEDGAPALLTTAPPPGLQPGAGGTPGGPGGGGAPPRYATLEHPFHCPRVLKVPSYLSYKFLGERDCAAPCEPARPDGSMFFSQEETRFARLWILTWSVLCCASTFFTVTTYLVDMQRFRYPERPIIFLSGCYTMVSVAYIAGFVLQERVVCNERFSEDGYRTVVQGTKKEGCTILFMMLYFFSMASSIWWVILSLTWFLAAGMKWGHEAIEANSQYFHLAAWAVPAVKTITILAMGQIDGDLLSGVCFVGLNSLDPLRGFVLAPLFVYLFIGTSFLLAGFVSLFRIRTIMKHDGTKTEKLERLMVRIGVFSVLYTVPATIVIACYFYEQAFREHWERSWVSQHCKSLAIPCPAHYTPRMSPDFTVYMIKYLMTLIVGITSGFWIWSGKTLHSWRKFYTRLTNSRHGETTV
T2 sequence (Q9H461 28-694): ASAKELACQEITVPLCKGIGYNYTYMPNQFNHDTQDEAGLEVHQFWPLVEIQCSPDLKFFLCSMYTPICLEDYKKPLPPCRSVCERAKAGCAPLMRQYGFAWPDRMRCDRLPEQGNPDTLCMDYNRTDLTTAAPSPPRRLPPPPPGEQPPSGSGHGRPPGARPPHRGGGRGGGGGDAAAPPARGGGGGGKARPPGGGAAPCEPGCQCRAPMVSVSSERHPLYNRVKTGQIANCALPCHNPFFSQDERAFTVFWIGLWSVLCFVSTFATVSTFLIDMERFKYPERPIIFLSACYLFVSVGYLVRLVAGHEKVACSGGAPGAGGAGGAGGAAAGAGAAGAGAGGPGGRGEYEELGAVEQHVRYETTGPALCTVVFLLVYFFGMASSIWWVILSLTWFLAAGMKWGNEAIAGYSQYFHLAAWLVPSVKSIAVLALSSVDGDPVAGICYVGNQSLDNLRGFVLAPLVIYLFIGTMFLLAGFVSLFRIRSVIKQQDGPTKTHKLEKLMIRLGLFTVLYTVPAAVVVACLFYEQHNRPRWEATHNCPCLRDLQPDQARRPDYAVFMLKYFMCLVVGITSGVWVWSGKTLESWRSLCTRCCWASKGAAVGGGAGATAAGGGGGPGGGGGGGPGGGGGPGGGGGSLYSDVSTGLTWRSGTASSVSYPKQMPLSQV

B1: 44R24: anti-FZD5/8 IgG antibody, VH SEQ ID NO:85, VL SEQ ID NO:86; ATCC deposit no. PTA-10311 (antibody, V domains shown)
VH: EVQLVESGGGLVQPGGSLRLSCAASGFTFSSYYITWVRQAPGKGLEWVSTISYSSSNTYYADSVKGRFTISRDNSKNTLYLQMNSLRAEDTAVYYCARSIVFDYWGQGTLVTVSS
VL: DIELTQPPSVSVAPGQTARISCSGDALGNRYVYWYQQKPGQAPVLVIPSGIPERFSGSNSGNTATLTISGTQAEDEADYYCGSWDTRPYPKYVFGGGTKLTVLG
modifications: 44R24 VH; 44R24 VL
notes: ATCC deposit no; PTA-10311
FZD2; FACS MFI dose-response, full-length FZD in HEK293, 20 μg/ml 4-fold dilutions
  EC50 (nM) Fzd2: no binding
FZD2
  binding to cell-surface FZD2 by flow cytometry (in words): does not bind
FZD8 [1]
  EC50: 1.09 nM
  binding to cell-surface FZD8 by flow cytometry (in words): good affinity
FZD7
  binding to cell-surface FZD7 by flow cytometry (in words): does not bind
FZD1
  binding to cell-surface FZD1 by flow cytometry (in words): does not bind
FZD5
  EC50: 1.89 nM
  binding to cell-surface FZD5 by flow cytometry (in words): good affinity
C28 tumor cells
  tumor growth relative to the control group: reduced growth relative to the control group
FZD8 [2]
  binding to FZD8 variant: reduced staining
Cytokeratin 7
  Cytokeratin 7 expression: elevated

B2: 18R5: human anti-FZD antibody; VH SEQ ID NO:10 (as 18R8), VL SEQ ID NO:14; binds FZD1, 2, 5, 7, 8 (antibody, V domains shown)
VH: EVQLVESGGGLVQPGGSLRLSCAASGFTFSHYTLSWVRQAPGKGLEWVSVISGDGSYTYYADSVKGRFTISSDNSKNTLYLQMNSLRAEDTAVYYCARNFIKYVFANWGQGTLVTVSS
VL: DIELTQPPSVSVAPGQTARISCSGDNIGSFYVHWYQQKPGQAPVLVIYDKSNRPSGIPERFSGSNSGNTATLTISGTQAEDEADYYCQSYANTLSLVFGGGTKLTVLG
modifications: 18R5/18R8 heavy chain variable region (VH); 18R5 light chain variable region (VL)
FZD2
  binding to cell-surface FZD2 by flow cytometry (in words): bind and greater binding potency and High affinity binding
FZD8 [1]
  EC50: 12 nM
  binding to cell-surface FZD8 by flow cytometry (in words): greater binding potency and bind
FZD7
  binding to cell-surface FZD7 by flow cytometry (in words): bind and greater binding potency and High affinity binding
FZD1
  binding to cell-surface FZD1 by flow cytometry (in words): bind and greater binding potency and High affinity binding
FZD5
  EC50: 1.1 nM
  binding to cell-surface FZD5 by flow cytometry (in words): bind and greater binding potency and High affinity binding
C28 tumor cells
  tumor growth relative to the control group: reduced growth relative to the control group
FZD8 [2]
  binding to FZD8 variant: reduced staining
Cytokeratin 7
  Cytokeratin 7 expression: elevated

B3: 18R8: human anti-FZD antibody from phage display; VH SEQ ID NO:10, VL SEQ ID NO:12; binds FZD1, 2, 5, 7, 8 (antibody, V domains shown)
VH: B2 VH
VL: DIELTQPPSVSVAPGQTARISCSGDKLGKKYASWYQQKPGQAPVLVIYEKDNRPSGIPERFSGSNSGNTATLTISGTQAEDEADYYCSSFAGNSLEVFGGGTKLTVLG
modifications: 18R5/18R8 heavy chain variable region (VH); 18R8 light chain variable region (VL)
FZD2
  binding to cell-surface FZD2 by flow cytometry (in words): bind
FZD8 [1]
  binding to cell-surface FZD8 by flow cytometry (in words): bind
FZD7
  binding to cell-surface FZD7 by flow cytometry (in words): bind
FZD1
  binding to cell-surface FZD1 by flow cytometry (in words): bind
FZD5
  binding to cell-surface FZD5 by flow cytometry (in words): bind
C28 tumor cells
  tumor growth relative to the control group: had no effect
FZD8 [2]
  binding to FZD8 variant: similarly lost
